Drawing on paper PMC3193538, this text covers koff for four molecules.

[ ]: non-standard residue; d: D form.

The experiment deals with human integrin protein αvβ3 (human) (UniProt P06756). The experiment in a line: SPR. In general terms: SPR reads the build-up and loss of mass on a sensor chip optically.
Molecule cyclo(RGD[dF]C) (also: conjugated to G5 PAMAM dendrimer, 2 peptides per dendrimer) [G5-2RGD (generation 5 PAMAM dendrimer displaying 2 cyclic RGD peptides)] registered a koff of 0.00132 s⁻¹.
As to cyclo(RGD[dF]C) (also: conjugated to G5 PAMAM dendrimer, 10 peptides per dendrimer) [G5-10RGD (generation 5 PAMAM dendrimer displaying 10 cyclic RGD peptides)], the koff worked out at 0.00254 s⁻¹.
The value for cyclo(RGD[dF]C) (also: conjugated to G5 PAMAM dendrimer, 3 peptides per dendrimer) [G5-3RGD (generation 5 PAMAM dendrimer displaying 3 cyclic RGD peptides)] was 0.00136 s⁻¹.
Consider cyclo(RGD[dF]C) (also: conjugated to G5 PAMAM dendrimer, 7 peptides per dendrimer) [G5-7RGD (generation 5 PAMAM dendrimer displaying 7 cyclic RGD peptides)], for which the koff came to 0.00155 s⁻¹. This koff and that of the molecule before are within 1.5-fold of each other.

In general, koff refers to the first-order rate constant of dissociation.
